What was measured:
[1] = biological target: T1, human CD40, soluble or recombinant (ELISA, Biacore) (human, UniProt P25942 21-193, limits assumed); assay: Biacore (method named in paragraph 140)
T1 construct: also called soluble CD40; recombinant CD40

[2] = biological target: T2, human CD40, cell-surface (on human B cells, monocytes and other CD40-expressing cells) (human, UniProt P25942 20-277); assay: cell-based or functional assay
[3] = biological target: T2, human CD40, cell-surface (on human B …); assay: cell-based or functional assay; remark: listed apart in the source

T2 sequence (P25942 20-277): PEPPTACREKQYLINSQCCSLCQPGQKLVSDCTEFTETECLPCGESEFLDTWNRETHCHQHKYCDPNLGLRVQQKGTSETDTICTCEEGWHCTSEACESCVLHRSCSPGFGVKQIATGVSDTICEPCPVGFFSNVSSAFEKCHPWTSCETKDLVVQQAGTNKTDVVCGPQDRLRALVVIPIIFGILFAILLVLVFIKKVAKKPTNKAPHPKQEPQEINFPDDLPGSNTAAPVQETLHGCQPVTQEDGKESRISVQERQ
T1 sequence (P25942 21-193 limits assumed): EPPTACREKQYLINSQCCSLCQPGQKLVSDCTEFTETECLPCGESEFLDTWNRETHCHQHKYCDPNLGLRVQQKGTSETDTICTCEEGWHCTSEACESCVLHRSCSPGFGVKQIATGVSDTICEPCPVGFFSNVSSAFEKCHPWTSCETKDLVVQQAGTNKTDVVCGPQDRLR

B1: CHIR-12.12 fully human anti-CD40 monoclonal antibody (antibody, V domains shown)
VH: QVQLVESGGGVVQPGRSLRLSCAASGFTFSSYGMHWVRQAPGKGLEWVAVISYEESNRYHADSVKGRFTISRDNSKITLYLQMNSLRTEDTAVYYCARDGGIAAPGPDYWGQGTLVTVSS
VL: DIVMTQSPLSLTVTPGEPASISCRSSQSLLYSNGYNYLDWYLQKPGQSPQVLISLGSNRASGVPDRFSGSGSGTDFTLKISRVEAEDVGVYYCMQARQTPFTFGPGTKVDIRR
notes: also called 153.8E2.D10.D6.12.12
Kd [1]: 0.5 nM

B2: CD40L on formaldehyde-fixed transfected CHO cells (ligand)
chain: MIETYNQTSPRSAATGLPISMKIFMYLLTVFLITQMIGSALFAVYLHRRLDKIEDERNLHEDFVFMKTIQRCNTGERSLSLLNCEEIKSQFEGFVKDIMLNKEETKKENSFEMQKGDQNPQIAAHVISEASSKTTSVLQWAEKGYYTMSNNLVTLENGKQLTVKRQGLYYIYAQVTFCSNREASSQAPFIASLCLKSPGRFERILLRAANTHSSAKPCGQQSIHLGGVFELQPGASVFVNVTDPSQVSHGTGFTSFGLLKL
MCP-1 secretion, monocytes, Donor 1 (folds of induction over background) [2]: 290 fold
MIP-1beta secretion, monocytes, Donor 1 (folds of induction over background) [2]: 162 fold
hIL6 secretion, monocytes, Donor 1 (folds of induction over background) [2]: 77.9 fold
hIL8 secretion, monocytes, Donor 1 (folds of induction over background) [2]: 124 fold
hIL-10 secretion, monocytes, Donor 1 (folds of induction over background) [2]: 4.2 fold
hTNF-alpha secretion, monocytes, Donor 1 (folds of induction over background) [2]: 13.8 fold
MCP-1 secretion, normal B cells, Donor 1 (folds of induction over background) [3]: 5.5 fold
MCP-1 secretion, normal B cells, Donor 3 (folds of induction over background) [3]: 1.7 fold
MIP-1beta secretion, normal B cells, Donor 1 (folds of induction over background) [3]: 2.2 fold
MIP-1beta secretion, normal B cells, Donor 2 (folds of induction over background) [3]: 2.6 fold
MIP-1beta secretion, normal B cells, Donor 3 (folds of induction over background) [3]: 17.8 fold
hIL-6 secretion, normal B cells, Donor 1 (folds of induction over background) [3]: 5.7 fold
hIL-6 secretion, normal B cells, Donor 2 (folds of induction over background) [3]: 3.8 fold
hIL-6 secretion, normal B cells, Donor 3 (folds of induction over background) [3]: 20.5 fold
hIL-8 secretion, normal B cells, Donor 1 (folds of induction over background) [3]: 7.7 fold
hIL-8 secretion, normal B cells, Donor 2 (folds of induction over background) [3]: 14.7 fold
hIL-8 secretion, normal B cells, Donor 3 (folds of induction over background) [3]: 49.3 fold
hIL-10 secretion, normal B cells, Donor 1 (folds of induction over background) [3]: 3.6 fold
hIL-10 secretion, normal B cells, Donor 3 (folds of induction over background) [3]: 3.6 fold
hTNF-alpha secretion, normal B cells, Donor 1 (folds of induction over background) [3]: 3.7 fold
hTNF-alpha secretion, normal B cells, Donor 2 (folds of induction over background) [3]: 4.8 fold
hTNF-alpha secretion, normal B cells, Donor 3 (folds of induction over background) [3]: 22.8 fold

B3: CHIR-5.9 fully human anti-CD40 monoclonal antibody (antibody, V domains shown)
VH: EVQLVQSGAEVKKPGESLKISCKGSGYSFTSYWIGWVRQMPGKGLEWMGIIYPGDSDTRYSPSFQGQVTISADKSISTAYLQWSSLKASDTAMYYCARGTAAGRDYYYYYGMDVWGQGTTVTVSS
VL: AIVMTQPPLSSPVTLGQPASISCRSSQSLVHSDGNTYLNWLQQRPGQPPRLLIYKFFRRLSGVPDRFSGSGAGTDFTLKISRVEAEDVGVYYCMQVTQFPHTFGQGTRLEIKR
notes: also called mAb CHIR-5.9; 131.2F8.5.9
Kd [1]: 12 nM

Reference: US20080274118A1 (Novartis, published 2008)
